Data on twelve molecules can be found in US20150291675A1 (published 2015).

Where a chain is given by its changes, count along the chain named.

The target in test [1] is T1, C-terminal biotinylated human Hepcidin-25 (human, not fully specified; biotinylated via a Lysine residue coupled to the C-terminus via a Mini-PEG linker).
T1 construct: Captured on plates via Neutravidin in the ELISAs; also called C-terminal biotinylated hHepcidin; C-terminal biotinylated hepcidin (Bachem AG)
T1 peptide: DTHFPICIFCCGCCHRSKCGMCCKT
Kind of test: direct ELISA, hepcidin captured via Neutravidin. Here is the method: A “direct” ELISA was performed to verify the binding affinity and specificity of the selected Lcn2 muteins. Therefore, a constant concentration of 1 μg/ml C-terminal biotinylated hepcidin (Bachem AG, CH) was captured on the surface of a polystyrol plate (Greiner, GE) via Neutravidin (Thermo Scientific, 5 μg/ml). Two step dilution series of purified Lcn2 muteins were incubated with the captured hepcidin […] at room temperature and detected either via the Strep-tag II using a rabbit anti-strep-tag II polyconal antibody (GenScript, USA) or by using a scaffold-specific polyclonal rabbit antibody. In both cases an anti rabbit IgG-HRP conjugate (Abcam, UK) was employed as secondary detection antibody.

In test [2] the target is T1, C-terminal biotinylated human …. Kind of test: HT-screening ELISA, reverse ELISA and competition ELISA; T7- and Strep-tagged clone in crude lysate. As for the experimental part:
Lipocalin muteins were selected in a HT-screening ELISA. Therein, NGAL variants equipped with a T7 detection tag (Novagen) as well as a Strep-tag II affinity tag (IBA) were soluble expressed in a 96 well microtiter plate using the E. coli strain TG1/F with phNGAL 101. This vector corresponds to phNGAL 98 (SEQ ID NO: 31) with an N-terminal T7 tag consisting of 11 amino acids ([…]) (SEQ ID NO: 34, see also FIG. 4B). Lipocalin mutein expression was induced overnight at 22° C. at 700 rpm with anhydrotetracycline (0.2 μg/ml) at an OD₅₅₀ of 0.6. […] To minimize non-specific binding in the subsequent ELISA screen, the crude cell lysates were supplemented with 2% w/v BSA and 0.1% v/v Tween 20 and tested in ELISA for binding to human Hepcidin-25. Therefore, soluble C-terminal biotinylated human Hepcidin-25 was immobilized on wells of black Fluotrac 600 ELISA plates (Greiner; 384 well) with 1 μg/ml via capturing by Neutravidin (5 μg/ml, Thermo Scientific). Neutravidin, Streptavidin, 5 μg/ml each, and 3% milk were used as negative control. Plates were blocked with PBST/0.1 containing 2% w/v BSA, and subsequently incubated with the bacterial cell extract for 1 h at room temperature plates were washed five times and bound Lipocalin muteins were detected via an anti-T7 monoclonal antibody-HRP conjugate (Novagen), diluted 1:10.000 in PBST/O 1. Therefore, QuantaBlu™ (Pierce; 1:2 diluted in PBS/T 0.1%) was used as fluorogenic HRP substrate. After 45 min of signal development at room temperature fluorescence was excited at a wavelength of 320 nm (±12.5 nm) and measured at 430 nm (±17.5 nm) in a GENiosPlus plate reader (Tecan).
In a reverse ELISA approach soluble expressed muteins from the crude cell lysate were captured in ELISA plates via their T7-tag following incubation with varying amounts of C-terminal biotinylated hHepcidin to reach target-limiting conditions in order to differentiate the muteins by their affinity. Binding of the target was detected via Extravidin-HRP conjugate (Sigma). One could compete for mutein binding by the addition of 100 nM non-biotinylated human Hepcidin-25 indicating, that the muteins bind the non-modified hHepcidin-25 as well.
(In general: An ELISA detects its analyte on a solid surface through an enzyme-linked reagent.)

The target in test [3] is T2, synthetic non-modified human Hepcidin-25 (human, not fully specified).
T2 construct: also called hHepcidin-25; non-biotinylated human Hepcidin-25
T2 peptide: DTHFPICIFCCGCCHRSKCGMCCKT
As to the kind of experiment: SPR (Biacore T100), mutein amine-coupled to CM5 chip, hepcidin as analyte, 1:1 model. Here is the method: Lipocalin muteins were immobilized to a CM5 sensor chip using standard amine chemistry. The surface of the chip was activated using EDC and NHS. Subsequently, 20 μg/mL lipocalin mutein solutions in 10 mM sodium acetate pH 4.5 (60 μg/mL in 10 mM sodium acetate pH 4.0 for peglyted lipocalin mutein) were applied at a flow rate of 5 μL/min until a surface density of 500-700 resonance units (RU) for non-modified lipocalin muteins and of approximately 1600 RU for pegylated lipocalin with the sequence of SEQ ID NO: 13 was achieved. Residual activated groups were saturated with ethanolamine. The reference channels were treated with EDC/NHS following ethanolamine (blank immobilization). All reagents and materials were purchased from GE Healthcare.
Serial dilutions of human and cynomolgus Hepcidin-25 in running buffer (HBS-EP+, GE Healthcare, BR-1006-68) were applied to the prepared surface. The following parameters were used for the binding assay, contact time 60 s, dissociation time 180-360 s, flow rate 30 μL/min. All measurements were performed on a Biacore T100 instrument (GE Healthcare) at 25° C.
Data were evaluated with Biacore T100 Evaluation software (V 2.0.1). Double referencing was used. The 1:1 Binding model (Langmuir) was used to fit the raw data.

B1: lipocalin mutein of SEQ ID NO: 5 (designed binder)
chain: QDSTSDLIPAPPLSKVPLQQNFQDNQFHGKWYVVGAAGNSLLREDKDPMKMWATIYELKEDKSYNVTRVNFGGKKCSYLIETFVPGSQPGEFTLGSIKSRPGATSVLVRVVSTNYNQHAMVFFKLVTQNREVFWITLYGRTKELTSELKENFIRFSKSLGLPENHIVFPVPIDQCIDG
notes: Purified with C-terminal Strep-tag II; also called hNGAL mutein; Lcn2 mutein; not shown: C-terminal Strep-tag II encoded by phNGAL98
Turning to B1, the binding result in test [1] is “binds”.

B2: lipocalin mutein of SEQ ID NO: 2 (designed binder)
chain: QDSTSDLIPAPPLSKVPLQQNFQDNQFHGKWYVVGTAGNSILREDKDPQKMWATIYELKEDKSYNVTRVFFEGKKCRYVIETFVPGSQPGEFTLGKIKSAPGGTSILVRVVSTNYNQHAMVFFKVVWQNRELFWITLYGRTKELTSELKENFIRFSKSLGLPENHIVFPVPIDQCIDG
notes: as for B1
For B2, the binding result in test [1] is recorded as “binds”.

B3: lipocalin mutein of SEQ ID NO: 10 (designed binder)
chain: QDSTSDLIPAPPLSKVPLQQNFQDNQFHGKWYVVGLAGNEILREDKDPMKMWATIYELKEDRSYNVTIVMFLAKKCEYLFQTFVPGSQPGEFTLGDIKSSPGRTSGLVRVVSTNYNQHAMVFFKVVWQNREVFWITLYGRTKELTPELKENFIRFSKSLGLPENHIVFPVPIDQCIDGF
notes: as for B1
Take B3: the binding result in test [2] is given as “binds”.

B4: lipocalin mutein of SEQ ID NO: 3 (designed binder)
chain: QDSTSDLIPAPPLSKVPLQQNFQDNQFHGKWYVVGVAGNGLLREDKDPLKMHATIYELKEDKSYNVTRVLFVRKKCRYYISTFVPGSQPGEFTLGRIKSEPGRTSFLVRVVSTNYNQHAMVFFKMVWQNREVFWITLYGRTKELTSELKENFIRFSKSLGLPENHIVFPVPIDQCIDG
notes: as for B1
As to B4, in test [1], the binding result is reported as “binds”.

B5: lipocalin mutein of SEQ ID NO: 4 (designed binder)
chain: QDSTSDLIPAPPLSKVPLQQNFQDNQFHGKWYVVGVAGNEMLREDKDPLKMLATIYELKEDKSYNVTRVMFEYKKCVYLIETFVPGSQPGEFTLGTIKSVPGLTSGLVRVVSTNYNQHAMVFFKRVWQNREVFWITLYGRTKELTSELKENFIRFSKSLGLPENHIVFPVPIDQCIDG
notes: as for B1
For B5, the binding result in test [1] is listed as “binds”.

B6: lipocalin mutein of SEQ ID NO: 6 (designed binder)
chain: QDSTSDLIPAPPLSKVPLQQNFQDNQFHGKWYVVGLAGNEILREDKDPLKMWATIYELKEDKSYNVTRVQFGEKKCGYGIETFVPGSQPGEFTLGSIKSVPGGTSRLVRVVSTNYNQHAMVFFKFVWQNREVFWITLYGRTKELTSELKENFIRFSKSLGLPENHIVFPVPIDQCIDG
notes: as for B1
As to B6, the binding result in test [1] is listed as “binds”.

B7: lipocalin mutein of SEQ ID NO: 1 (designed binder)
chain: QDSTSDLIPAPPLSKVPLQQNFQDNQFHGKWYVVGLAGNEVLREDKDPMKMWATIYELEEDKSYNVTIVMFLAKKCEYLFQTFVPGSQPGEFTLGDIKSSPGRTSGLVRVVSTNYNQHAMVFFKTVWQNREVFWITLYGRTKELTSELKENFIRFSKSLGLPENHIVFPVPIDQCIDG
notes: also called hNGAL mutein; Lcn2 mutein; not shown: C-terminal Strep-tag II encoded by phNGAL98
For the molecule B7, the binding result in test [1] and in test [3] was “binds” in each case.

B8: lipocalin mutein of SEQ ID NO: 8 (designed binder)
chain: B7 chain with E59K, F71P, K74E, D96G, S100G, T125V, I135V
notes: as for B1
Consider B8, for which the binding result in test [3] and in test [2] was “binds” each time.

B9: lipocalin mutein of SEQ ID NO: 9 (designed binder)
chain: B7 chain with E59K, F71S, T125V, E147G
notes: as for B1
With B9, the binding result in test [2] is “binds”.

B10: lipocalin mutein of SEQ ID NO: 11 (designed binder)
chain: B7 chain with V41I, E59K, T125V, E147G
notes: as for B1
Turning to B10, in test [2], the binding result is “binds”.

B11: lipocalin mutein of SEQ ID NO: 12 (designed binder)
chain: B7 chain with E59K, K74E, K75E, T125V, E150K
notes: as for B1
B11: the binding result in test [2] was “binds”.

B12: lipocalin mutein of SEQ ID NO: 7 (designed binder)
chain: QDSTSDLIPAPPLSKVPLQQNFQDNQFHGKWYVVGLAGNRVLREDKDPQKMFATIYELKEDKSYNVTGVDFRTKKCLYSIGTFVPGSQPGEFTLGVIKSQPGWTSYLVRVVSTNYNQHAMVFFKTVWQNREVFWITLYGRTKELTSELKENFIRFSKSLGLPENHIVFPVPIDQCIDG
notes: as for B1
B12: in test [1], the binding result is recorded as “binds”.
